System: Escherichia coli TOP10
Assay: shrunken log2 fold change of peptide-encoding DNA abundance (4.5 h post-induction vs induction); higher = less antimicrobial activity (less host growth inhibition)
Conditions: time post-induction: 4.5 h; library: site-saturation at positions 5, 18, 19, 20
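Also: peptides expressed intracellularly from a pBAD plasmid library in pooled LB shake-flask culture, induced with 0.3% L-arabinose, DNA abundance read by NGS, three biological replicates, DESeq2 with apeglm shrinkage.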

Sequence | shrunken log2 fold change
RRIRMRPPRLPRPRPRPELKPRP | 0.95
RRIRPRPPRLPRPRPRPSKWPRP | -0.242
RRIRRRPPRLPRPRPRPKNCPRP | 0.0654
RRIRFRPPRLPRPRPRPECAPRP | 0.724
RRIRIRPPRLPRPRPRPVCSPRP | -0.174
RRIRWRPPRLPRPRPRPSELPRP | 0.0129
RRIRQRPPRLPRPRPRPQTDPRP | 0.00346
RRIRPRPPRLPRPRPRPKPCPRP | -0.044
RRIRVRPPRLPRPRPRPPDVPRP | -0.286
RRIRRRPPRLPRPRPRPVAKPRP | 0.386
RRIRRRPPRLPRPRPRPQDSPRP | -0.0402
RRIRWRPPRLPRPRPRPEWRPRP | 0.439
RRIRERPPRLPRPRPRPDVVPRP | 0.015
RRIRRRPPRLPRPRPRPWMFPRP | 0.0935
RRIRARPPRLPRPRPRPQYTPRP | -0.496
RRIRKRPPRLPRPRPRPFRTPRP | 0.000407
RRIRYRPPRLPRPRPRPFWFPRP | -0.264
RRIRVRPPRLPRPRPRPQQNPRP | -0.112
RRIRKRPPRLPRPRPRPWEEPRP | -0.000921
RRIRQRPPRLPRPRPRPICAPRP | 0.36

Sequence | shrunken log2 fold change
RRIRQRPPRLPRPRPRPRAFPRP | 0.317
RRIRSRPPRLPRPRPRPLNHPRP | -0.554
RRIRGRPPRLPRPRPRPEPHPRP | 1.09
RRIRYRPPRLPRPRPRPTHCPRP | 0.0602
RRIRGRPPRLPRPRPRPSCTPRP | 0.565
RRIRTRPPRLPRPRPRPQGMPRP | 0.0427
RRIRWRPPRLPRPRPRPCIGPRP | -0.148
RRIRCRPPRLPRPRPRPDATPRP | 1.31
RRIRDRPPRLPRPRPRPYCYPRP | -0.125
RRIRYRPPRLPRPRPRPSYEPRP | -0.629
RRIRGRPPRLPRPRPRPQLLPRP | 0.253
RRIRWRPPRLPRPRPRPDLAPRP | 0.953
RRIRGRPPRLPRPRPRPRRFPRP | 0.402
RRIRNRPPRLPRPRPRPRPGPRP | 0.638
RRIRRRPPRLPRPRPRPSQGPRP | 0.0642
RRIRQRPPRLPRPRPRPKIDPRP | -0.146
RRIRTRPPRLPRPRPRPVKLPRP | 0.0303
RRIRKRPPRLPRPRPRPMPEPRP | -0.0371
RRIRSRPPRLPRPRPRPWAFPRP | -0.072
RRIRHRPPRLPRPRPRPGCYPRP | 0.0554

Sequence | shrunken log2 fold change
RRIRGRPPRLPRPRPRPQAWPRP | 0.69
RRIRHRPPRLPRPRPRPMQYPRP | -0.104
RRIRVRPPRLPRPRPRPTGSPRP | -0.133
RRIRCRPPRLPRPRPRPEFSPRP | 0.072
RRIRIRPPRLPRPRPRPHPAPRP | -0.516
RRIRRRPPRLPRPRPRPQLDPRP | -0.0387
RRIRARPPRLPRPRPRPVIDPRP | -0.066
RRIRGRPPRLPRPRPRPHDQPRP | 0.62
RRIRKRPPRLPRPRPRPPDEPRP | 1.89
RRIRSRPPRLPRPRPRPNKCPRP | -0.42
RRIRSRPPRLPRPRPRPWGDPRP | -0.077
RRIRTRPPRLPRPRPRPMTYPRP | -0.0748
RRIRWRPPRLPRPRPRPDNTPRP | -0.25
RRIRSRPPRLPRPRPRPCQWPRP | -0.134
RRIRLRPPRLPRPRPRPAQAPRP | -0.0635
RRIRHRPPRLPRPRPRPYYIPRP | 0.0121
RRIRERPPRLPRPRPRPNDQPRP | 0.0572
RRIRGRPPRLPRPRPRPVHLPRP | 0.034
RRIRKRPPRLPRPRPRPPMNPRP | 0.123
RRIRHRPPRLPRPRPRPLTFPRP | 0.01

— the supplement of paper PMC9112550, “Optimization of the antimicrobial peptide Bac7 by deep mutational scanning” (BMC Biology, 2022)
